Numbered stars: 1 amine (or outer) side, 2 acyl side, 3 side chain; on linkers, the order of the positions; unused ones are H or OH. Bridge positions count the residues as written; N and C are the ends. Side chains are listed from the residue outwards. Ends that are not written are not given here. * marks the point of attachment. C20 diacid = O=C(O)CCCCCCCCCCCCCCCCCCC(=O)*; γGlu = O=C(O)[C@H](CCC(=O)[*:2])N[*:1]; AEEA = NCCOCCOCC(=O)O
T1: human calcitonin receptor (human, UniProt P30988 25-474)
T1 construct: whole, on cells; Used as membranes prepared from a BHK tk'ts 13 cell line stably transfected with the human calcitonin receptor (Assay VII); also called hCTR; hCT
T1 sequence (looked up): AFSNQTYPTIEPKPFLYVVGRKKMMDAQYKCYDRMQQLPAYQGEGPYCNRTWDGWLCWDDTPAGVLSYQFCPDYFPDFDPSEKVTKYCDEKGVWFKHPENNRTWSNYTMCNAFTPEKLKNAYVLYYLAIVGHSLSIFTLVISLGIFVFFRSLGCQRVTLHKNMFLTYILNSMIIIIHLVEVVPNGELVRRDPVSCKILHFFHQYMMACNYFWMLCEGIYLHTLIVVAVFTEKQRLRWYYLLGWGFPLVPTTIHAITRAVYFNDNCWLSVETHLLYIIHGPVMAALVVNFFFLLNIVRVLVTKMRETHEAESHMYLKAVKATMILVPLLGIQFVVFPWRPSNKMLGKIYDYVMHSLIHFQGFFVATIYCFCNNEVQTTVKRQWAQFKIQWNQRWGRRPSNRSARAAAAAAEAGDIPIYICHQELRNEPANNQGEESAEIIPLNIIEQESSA

T2: rat calcitonin receptor (rat, UniProt P32214 25-516)
T2 construct: whole, on cells; Used as membranes prepared from BHK tk'ts 13 cells transiently transfected with the rat calcitonin receptor (Assay VIII); also called rCTR; rat calcitonin (a) receptor
T2 sequence (looked up): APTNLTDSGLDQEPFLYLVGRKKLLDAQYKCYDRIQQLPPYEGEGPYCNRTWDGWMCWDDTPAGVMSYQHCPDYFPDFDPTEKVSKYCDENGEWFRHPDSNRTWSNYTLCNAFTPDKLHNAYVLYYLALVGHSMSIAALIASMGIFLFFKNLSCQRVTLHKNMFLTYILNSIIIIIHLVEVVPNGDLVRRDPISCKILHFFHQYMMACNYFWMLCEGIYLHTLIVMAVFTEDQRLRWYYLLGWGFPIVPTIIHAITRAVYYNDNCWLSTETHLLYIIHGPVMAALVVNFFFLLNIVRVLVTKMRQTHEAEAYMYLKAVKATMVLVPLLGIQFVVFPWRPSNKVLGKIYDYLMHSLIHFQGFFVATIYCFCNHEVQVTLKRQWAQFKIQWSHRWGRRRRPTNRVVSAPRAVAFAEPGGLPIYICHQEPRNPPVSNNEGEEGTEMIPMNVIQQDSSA

T3: rat amylin receptor (rat calcitonin receptor + rat RAMP 3) (rat, UniProt P32214 25-516; Q9JJ73 23-147)
T3 construct: whole, on cells; Used as membranes prepared from BHK tk'ts 13 cells transiently transfected with rat calcitonin receptor and rat RAMP 3 (Assay VI); also called rAmylin-R; rat amylin 3(a) receptor
T3 sequence (looked up) 1: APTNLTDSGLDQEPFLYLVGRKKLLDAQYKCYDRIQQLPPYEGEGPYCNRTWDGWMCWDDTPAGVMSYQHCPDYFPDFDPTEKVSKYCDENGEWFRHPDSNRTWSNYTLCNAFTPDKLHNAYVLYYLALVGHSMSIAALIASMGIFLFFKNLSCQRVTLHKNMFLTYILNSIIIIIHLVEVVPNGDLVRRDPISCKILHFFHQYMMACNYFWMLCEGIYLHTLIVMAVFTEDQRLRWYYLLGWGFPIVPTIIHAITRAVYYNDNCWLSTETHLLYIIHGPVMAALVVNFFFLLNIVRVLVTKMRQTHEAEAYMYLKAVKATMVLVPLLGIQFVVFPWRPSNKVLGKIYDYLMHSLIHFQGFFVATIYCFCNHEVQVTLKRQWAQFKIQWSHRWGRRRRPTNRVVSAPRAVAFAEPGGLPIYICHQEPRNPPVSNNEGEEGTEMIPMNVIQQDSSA
T3 sequence (looked up) 2: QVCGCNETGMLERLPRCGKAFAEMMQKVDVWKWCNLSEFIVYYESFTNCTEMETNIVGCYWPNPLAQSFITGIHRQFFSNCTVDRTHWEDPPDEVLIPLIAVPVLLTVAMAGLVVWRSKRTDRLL


Experiments:
[1] = target: T1, human calcitonin receptor; test: IC50 on human CTR divided by IC50 on human amylin receptor (Assays VII/V)
How it was run: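 Membranes (35 ng/μL final) + SPA beads, 50 mM Hepes pH 7.4 buffer with 1 mM CaCl2, 5 mM MgCl₂, 0.1% OA, 0.02% Tween20; 120 min, 25° C, shaking; centrifuged, counted; IC₅₀ by one-site binding competition.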

rat calcitonin receptor [2] = target: T2, rat calcitonin receptor; test: IC50 on rat CTR divided by IC50 on rat amylin receptor (Assays VIII/VI)
[3] = target: T3, rat amylin receptor (rat calcitonin …); test: SPA competition with 125I-rat amylin, membranes of BHK cells with rat CTR + rat RAMP3 (Assay VI)
rat calcitonin receptor [4] = target: T2, rat calcitonin receptor; test: SPA competition with 125I-calcitonin, membranes of BHK cells with rat CTR (Assay VIII)

Binder	Ratio hCT/hAmylin binding [1]	Ratio rCT/rAmylin binding (rat calcitonin receptor [2])	IC50 [3] [nM]	IC50 (rat calcitonin receptor [4]) [nM]
K([AEEA-γGlu-C20 diacid])CNTATCATQRLANFLRHSSPNFGAIPSPTPVGSNTY-NH2 (disulfide 2-7; N-terminus assumed; SMILES CC[C@H](C)[C@H](NC(=O)[C@H](C)NC(=O)CNC(=O)[C@H](Cc1ccccc1)NC(=O)[C@H](CC(N)=O)NC(=O)[C@@H]1CCCN1C(=O)[C@H](CO)NC(=O)[C@H](CO)NC(=O)[C@H](Cc1c[nH]cn1)NC(=O)[C@H](CCCNC(=N)N)NC(=O)[C@H](CC(C)C)NC(=O)[C@H](Cc1ccccc1)NC(=O)[C@H](CC(N)=O)NC(=O)[C@H](C)NC(=O)[C@H](CC(C)C)NC(=O)[C@H](CCCNC(=N)N)NC(=O)[C@H](CCC(N)=O)NC(=O)[C@@H](NC(=O)[C@H](C)NC(=O)[C@@H]1CSSC[C@H](NC(=O)[C@@H](N)CCCCNC(=O)COCCOCCNC(=O)CC[C@H](NC(=O)CCCCCCCCCCCCCCCCCCC(=O)O)C(=O)O)C(=O)N[C@@H](CC(N)=O)C(=O)N[C@@H]([C@@H](C)O)C(=O)N[C@@H](C)C(=O)N[C@@H]([C@@H](C)O)C(=O)N1)[C@@H](C)O)C(=O)N1CCC[C@H]1C(=O)N[C@@H](CO)C(=O)N1CCC[C@H]1C(=O)N[C@H](C(=O)N1CCC[C@H]1C(=O)N[C@H](C(=O)NCC(=O)N[C@@H](CO)C(=O)N[C@@H](CC(N)=O)C(=O)N[C@H](C(=O)N[C@@H](Cc1ccc(O)cc1)C(N)=O)[C@@H](C)O)C(C)C)[C@@H](C)O, Analogue of human amylin; also called compound 54)	146	179	0.049	8.79
K([AEEA-γGlu-C20 diacid])CNTATCATQRLANFLRHSSPNFGAIPSSTPVGSHTY-NH2 (disulfide 2-7; N-terminus assumed; SMILES CC[C@H](C)[C@H](NC(=O)[C@H](C)NC(=O)CNC(=O)[C@H](Cc1ccccc1)NC(=O)[C@H](CC(N)=O)NC(=O)[C@@H]1CCCN1C(=O)[C@H](CO)NC(=O)[C@H](CO)NC(=O)[C@H](Cc1c[nH]cn1)NC(=O)[C@H](CCCNC(=N)N)NC(=O)[C@H](CC(C)C)NC(=O)[C@H](Cc1ccccc1)NC(=O)[C@H](CC(N)=O)NC(=O)[C@H](C)NC(=O)[C@H](CC(C)C)NC(=O)[C@H](CCCNC(=N)N)NC(=O)[C@H](CCC(N)=O)NC(=O)[C@@H](NC(=O)[C@H](C)NC(=O)[C@@H]1CSSC[C@H](NC(=O)[C@@H](N)CCCCNC(=O)COCCOCCNC(=O)CC[C@H](NC(=O)CCCCCCCCCCCCCCCCCCC(=O)O)C(=O)O)C(=O)N[C@@H](CC(N)=O)C(=O)N[C@@H]([C@@H](C)O)C(=O)N[C@@H](C)C(=O)N[C@@H]([C@@H](C)O)C(=O)N1)[C@@H](C)O)C(=O)N1CCC[C@H]1C(=O)N[C@@H](CO)C(=O)N[C@@H](CO)C(=O)N[C@H](C(=O)N1CCC[C@H]1C(=O)N[C@H](C(=O)NCC(=O)N[C@@H](CO)C(=O)N[C@@H](Cc1c[nH]cn1)C(=O)N[C@H](C(=O)N[C@@H](Cc1ccc(O)cc1)C(N)=O)[C@@H](C)O)C(C)C)[C@@H](C)O, Analogue of human amylin; also called compound 57)	133	135	0.181	24.4
K([AEEA-γGlu-C20 diacid])CNTATCATQRLANFLRHSSPNFGAIPSPTNVGPNTY-NH2 (disulfide 2-7; N-terminus assumed; SMILES CC[C@H](C)[C@H](NC(=O)[C@H](C)NC(=O)CNC(=O)[C@H](Cc1ccccc1)NC(=O)[C@H](CC(N)=O)NC(=O)[C@@H]1CCCN1C(=O)[C@H](CO)NC(=O)[C@H](CO)NC(=O)[C@H](Cc1c[nH]cn1)NC(=O)[C@H](CCCNC(=N)N)NC(=O)[C@H](CC(C)C)NC(=O)[C@H](Cc1ccccc1)NC(=O)[C@H](CC(N)=O)NC(=O)[C@H](C)NC(=O)[C@H](CC(C)C)NC(=O)[C@H](CCCNC(=N)N)NC(=O)[C@H](CCC(N)=O)NC(=O)[C@@H](NC(=O)[C@H](C)NC(=O)[C@@H]1CSSC[C@H](NC(=O)[C@@H](N)CCCCNC(=O)COCCOCCNC(=O)CC[C@H](NC(=O)CCCCCCCCCCCCCCCCCCC(=O)O)C(=O)O)C(=O)N[C@@H](CC(N)=O)C(=O)N[C@@H]([C@@H](C)O)C(=O)N[C@@H](C)C(=O)N[C@@H]([C@@H](C)O)C(=O)N1)[C@@H](C)O)C(=O)N1CCC[C@H]1C(=O)N[C@@H](CO)C(=O)N1CCC[C@H]1C(=O)N[C@H](C(=O)N[C@@H](CC(N)=O)C(=O)N[C@H](C(=O)NCC(=O)N1CCC[C@H]1C(=O)N[C@@H](CC(N)=O)C(=O)N[C@H](C(=O)N[C@@H](Cc1ccc(O)cc1)C(N)=O)[C@@H](C)O)C(C)C)[C@@H](C)O, Analogue of human amylin; also called compound 56)	42.6	131	0.04	5.26

Further lines, results first:

Ratio hCT/hAmylin binding [1]	Ratio rCT/rAmylin binding (rat calcitonin receptor [2])	IC50 [3] [nM]	IC50 (rat calcitonin receptor [4]) [nM]	Binder
109	76.6	0.135	10.3	K([AEEA-γGlu-C20 diacid])CNTATCATQRLANFLRHSSPNFGAIPSSTNVGPHTY-NH2 (disulfide 2-7; N-terminus assumed; SMILES CC[C@H](C)[C@H](NC(=O)[C@H](C)NC(=O)CNC(=O)[C@H](Cc1ccccc1)NC(=O)[C@H](CC(N)=O)NC(=O)[C@@H]1CCCN1C(=O)[C@H](CO)NC(=O)[C@H](CO)NC(=O)[C@H](Cc1c[nH]cn1)NC(=O)[C@H](CCCNC(=N)N)NC(=O)[C@H](CC(C)C)NC(=O)[C@H](Cc1ccccc1)NC(=O)[C@H](CC(N)=O)NC(=O)[C@H](C)NC(=O)[C@H](CC(C)C)NC(=O)[C@H](CCCNC(=N)N)NC(=O)[C@H](CCC(N)=O)NC(=O)[C@@H](NC(=O)[C@H](C)NC(=O)[C@@H]1CSSC[C@H](NC(=O)[C@@H](N)CCCCNC(=O)COCCOCCNC(=O)CC[C@H](NC(=O)CCCCCCCCCCCCCCCCCCC(=O)O)C(=O)O)C(=O)N[C@@H](CC(N)=O)C(=O)N[C@@H]([C@@H](C)O)C(=O)N[C@@H](C)C(=O)N[C@@H]([C@@H](C)O)C(=O)N1)[C@@H](C)O)C(=O)N1CCC[C@H]1C(=O)N[C@@H](CO)C(=O)N[C@@H](CO)C(=O)N[C@H](C(=O)N[C@@H](CC(N)=O)C(=O)N[C@H](C(=O)NCC(=O)N1CCC[C@H]1C(=O)N[C@@H](Cc1c[nH]cn1)C(=O)N[C@H](C(=O)N[C@@H](Cc1ccc(O)cc1)C(N)=O)[C@@H](C)O)C(C)C)[C@@H](C)O, Analogue of human amylin; also called compound 58)
10.8	47.7	1.08	51.4	K([AEEA-γGlu-C20 diacid])CNTATCATQRLANFLRHSSPNFGAIPSSTPVGSNTY-NH2 (disulfide 2-7; N-terminus assumed; SMILES CC[C@H](C)[C@H](NC(=O)[C@H](C)NC(=O)CNC(=O)[C@H](Cc1ccccc1)NC(=O)[C@H](CC(N)=O)NC(=O)[C@@H]1CCCN1C(=O)[C@H](CO)NC(=O)[C@H](CO)NC(=O)[C@H](Cc1c[nH]cn1)NC(=O)[C@H](CCCNC(=N)N)NC(=O)[C@H](CC(C)C)NC(=O)[C@H](Cc1ccccc1)NC(=O)[C@H](CC(N)=O)NC(=O)[C@H](C)NC(=O)[C@H](CC(C)C)NC(=O)[C@H](CCCNC(=N)N)NC(=O)[C@H](CCC(N)=O)NC(=O)[C@@H](NC(=O)[C@H](C)NC(=O)[C@@H]1CSSC[C@H](NC(=O)[C@@H](N)CCCCNC(=O)COCCOCCNC(=O)CC[C@H](NC(=O)CCCCCCCCCCCCCCCCCCC(=O)O)C(=O)O)C(=O)N[C@@H](CC(N)=O)C(=O)N[C@@H]([C@@H](C)O)C(=O)N[C@@H](C)C(=O)N[C@@H]([C@@H](C)O)C(=O)N1)[C@@H](C)O)C(=O)N1CCC[C@H]1C(=O)N[C@@H](CO)C(=O)N[C@@H](CO)C(=O)N[C@H](C(=O)N1CCC[C@H]1C(=O)N[C@H](C(=O)NCC(=O)N[C@@H](CO)C(=O)N[C@@H](CC(N)=O)C(=O)N[C@H](C(=O)N[C@@H](Cc1ccc(O)cc1)C(N)=O)[C@@H](C)O)C(C)C)[C@@H](C)O, Analogue of human amylin; also called compound 49)
